Results reported in the supplement of paper PMC10724198.
± gives the standard deviation of the averaged measurements.

Test system: Saccharomyces cerevisiae
Assay: protein stability index of tFT-peptide fusion (C-terminal peptide) (PSI (0-1 scale)); higher = more stable (slower turnover)
Details: genetic background: wild type; temperature: 30 C
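Further: PSI is a weighted mean of sequencing reads over stability bins, variants kept only with over 10 reads, mCherry proximal and sfGFP distal, peptide attached via GGGS linker.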

Sequence	protein stability index
TSIDIEWYNSLM	0.589 ± 0.026
TSIREVPAPCSH	0.756 ± 0.032
TSKYQENKQKKR	0.7095 ± 0.0057
TSLIPPASPFAW	0.643 ± 0.11
TSPPSLLFAMAR	0.693 ± 0.038
TSPTPPPTPCRS	0.6927 ± 0.0067
TSRPLHEQTVSP	0.677 ± 0.025
TSRTLKPGIPPA	0.7033 ± 0.0013
TSSPVFPFPPTP	0.745 ± 0.042
TSSSDCRSPAPP	0.744 ± 0.038
TSTDLKKTNLQN	0.645 ± 0.021
TSTRTPTHRGPL	0.762 ± 0.014
TSYFRRRRSHSH	0.753 ± 0.01
TTCKTPPTYSFP	0.71 ± 0.033
TTCLYYDLQIPM	0.672 ± 0.015
TTIVGRIMRVMR	0.706 ± 0.012
TTKKKKGKKKYH	0.681 ± 0.048
TTQEPTPLAQEQ	0.713 ± 0.024
TTVAIPSINRYS	0.671 ± 0.051
TTWSPWLGVAET	0.752 ± 0.07
TVCGTLISFVEG	0.694 ± 0.028
TVERLGSRRGMA	0.712 ± 0.022
TVIWNSLRNCKF	0.819 ± 0.15
TVPFGLPVRPSP	0.7464 ± 0.004
TVPRSPPSPPLT	0.7 ± 0.021
TVSGPKTNLGQA	0.71 ± 0.14

Sequence	protein stability index
TVYRQRRDAPTR	0.727 ± 0.022
TWANKRIGRRKE	0.778 ± 0.039
TWKARFFMDLGN	0.672 ± 0.12
TWVPYIIMKRER	0.669 ± 0.019
TYANKVKVHCGI	0.651 ± 0.059
VAAFGGGPTNGV	0.724 ± 0.013
VAAGGTVSPSSQ	0.653 ± 0.057
VAAKAHPLASMS	0.617 ± 0.11
VACFASRVLCRG	0.503 ± 0.024
VAGRGLGCPGRI	0.632 ± 0.018
VAGSGAGREAAY	0.651 ± 0.0067
VAGVLVFGKVGG	0.694 ± 0.043
VALFPVSFFSWL	0.643 ± 0.098
VALVCFAAGWLW	0.507 ± 0.037
VASSGRSPTPTR	0.7551 ± 0.0015
VAWAQPSGSKAC	0.697 ± 0.046
VCAAWKCRLDAG	0.624 ± 0.0043
VCAGGVFRLARG	0.66 ± 0.12
VCDIRSFALWYA	0.8 ± 0.024
VCGECGWRRVCL	0.734 ± 0.028
VCGGLGCSVVLE	0.721 ± 0.078
VCGGRQGGWGGW	0.693 ± 0.0098
VCGRTHRVLPTY	0.641 ± 0.015
VCIAKCKYNKTS	0.606 ± 0.015
VCLGAWGEGGRG	0.664 ± 0.071
VCMSLVRGEAGG	0.657 ± 0.011

Sequence	protein stability index
VCNFCFLPASLV	0.636 ± 0.021
VCPPIVSSSWIL	0.687 ± 0.035
VCPVIGGGGVGV	0.695 ± 0.0077
VCRGFRHQCWYG	0.665 ± 0.013
VCRLLASCFWRL	0.655 ± 0.035
VCSLALSRPSTG	0.6564 ± 0.0018
VCTGYIAGGPVC	0.659 ± 0.05
VCTPCEFIRTQG	0.697 ± 0.036
VCVFFLFGYFRL	0.562 ± 0.22
VCVLGGVWGCRG	0.66 ± 0.072
VCVSRGPGTSDA	0.685 ± 0.02
VCWHSNCVGARH	0.652 ± 0.01
VDGLQYFMYISG	0.68 ± 0.073
VDGLSGVRPRGL	0.69 ± 0.033
VDLARWPVPEFW	0.834 ± 0.022
VDRAPFHLGRQG	0.712 ± 0.043
VEDGGSREAGEA	0.627 ± 0.0073
VEERGCCGEAEG	0.72671 ± 0.00023
VEGISKMTRINP	0.8698 ± 0.0057
VEGNLIYKKKYK	0.656 ± 0.053
VEHILQGVKYRR	0.717 ± 0.098
VESRVVGGGGDW	0.683 ± 0.047
VEVKEKLKLWSH	0.691 ± 0.021
VFAHCSRHRGST	0.7103 ± 0.0029
VFDCLCGLRPGF	0.632 ± 0.026
VFDGSVSWARHD	0.6529 ± 0.0053

Sequence	protein stability index
VFGFLGSLASCR	0.853 ± 0.2
VFHLATSVRRRY	0.672 ± 0.051
VFLLSDVCGLGL	0.583 ± 0.2
VFLVDCFGVCFL	0.784 ± 0.048
VFMWRIRRRLVR	0.598 ± 0.02
VFPPLSRLLPGP	0.699 ± 0.1
VFTGVGFVPLVC	0.5757 ± 0.0034
VGAGRGKWRGGG	0.6591 ± 0.0013
VGAGVAGGASVS	0.613 ± 0.027
VGAIGYWCPEWR	0.651 ± 0.019
VGAPPCYPVSRL	0.74 ± 0.24
VGCPGGVWVFRG	0.535 ± 0.011
VGCTSFWLAILR	0.56 ± 0.026
VGDGLGWGGQGG	0.678 ± 0.03
VGEIMREVKGPD	0.72 ± 0.0079
VGFDFLFRFFFL	0.628 ± 0.037
VGFFGMGVLPEG	0.741 ± 0.013
VGFSLGGFLFLF	0.585 ± 0.096
VGGCLFQLSSGY	0.683 ± 0.035
VGGGASGVGRSG	0.63009 ± 0.00033
VGGGGERGRGGS	0.687 ± 0.01
VGGGRAALRWYG	0.673 ± 0.018
VGGGRFCGCLVV	0.767 ± 0.015
VGGGRRGGVGEG	0.652 ± 0.021
VGGRAAIGRGGW	0.706 ± 0.012
VGGRLLFVGKRG	0.669 ± 0.051

Sequence	protein stability index
VGGRMGVDEGKG	0.669 ± 0.02
VGGRRCVCVWWL	0.674 ± 0.016
VGHGGRRGVGGW	0.612 ± 0.057
VGICCCKTYCCS	0.656 ± 0.074
VGIFSLLRCRGE	0.701 ± 0.035
VGIQQSVVVRLE	0.6685 ± 0.0034
VGKHNLYSKNWR	0.66 ± 0.016
VGKSNKYEETHK	0.747 ± 0.06
VGLGAGGTSLMR	0.571
VGLGEGGGVGEG	0.678 ± 0.079
VGLLQRSLAFVL	0.612 ± 0.031
VGMAGWSRVRWG	0.715 ± 0.0089
VGMVTADGRLAT	0.692 ± 0.043
VGNNERDLQQIE	0.665 ± 0.032
VGRSAAGRLELI	0.679 ± 0.014
VGSGFGGAGVIG	0.696 ± 0.045
VGSRWNKELSQS	0.725 ± 0.081
VGSSPYTVFVSG	0.747 ± 0.11
VGTRVGCEAGVV	0.637 ± 0.095
VGVATRGVGGGM	0.669 ± 0.032
VGVGRAALRWYG	0.6716 ± 0.0035
VGVGRGALRWYG	0.704 ± 0.014
VGVKLVVEAIRR	0.6322 ± 0.0039
VGVLRTSRASPH	0.646 ± 0.031
VGVLSYYTCYEL	0.689 ± 0.18
VGVSGCVLWYRV	0.692 ± 0.031

Sequence	protein stability index
VGWGLGGGVVLV	0.675 ± 0.047
VGWRGTGCGRVW	0.688 ± 0.074
VGWRWGRGRAVW	0.728 ± 0.067
VGWWVAVGWGLG	0.704 ± 0.067
VGYGTGGAGGVE	0.766 ± 0.044
VHFFHLCFCEIL	0.673 ± 0.051
VHLAPPLPPTAT	0.708 ± 0.021
VHVMSPPPALPV	0.659 ± 0.013
VHWAALRSVLRG	0.699 ± 0.047
VIAGSWVAGVSV	0.655 ± 0.011
VICSIRGYNRLR	0.711 ± 0.038
VIDQRIDIAYFS	0.746 ± 0.1
VIEWFVRGRGGG	0.693 ± 0.01
VIGSSGRVGGLG	0.6913 ± 0.0028
VILGRGGSICKV	0.795 ± 0.046
VIYERDSLRGGI	0.753 ± 0.038
VKGKKREVTDPR	0.6376 ± 0.0023
VKRSGSDGALHR	0.685 ± 0.021
VKRVYQRFHVKK	0.666 ± 0.04
VKSAAGPGRRSS	0.66 ± 0.015
VKSTRRHGRPQS	0.723 ± 0.057
VKTLNQKCIKKN	0.719 ± 0.062
VKYSIEVKRKKK	0.7181 ± 0.0039
VLAHCLFRCEKN	0.6062 ± 0.001
VLAWVPNFALLP	0.677 ± 0.063
VLDLVPDFSNGG	0.65 ± 0.036

Sequence	protein stability index
VLDVRLGGRCGE	0.702 ± 0.072
VLEKFFFGLAIL	0.569 ± 0.014
VLFLGVRCSCLG	0.533 ± 0.014
VLFLVGLCRDFA	0.553 ± 0.036
VLFSRFVFLGVL	0.528 ± 0.0095
VLHQWWCIGLGC	0.736 ± 0.013
VLKVFIRERRVR	0.703 ± 0.081
VLLYSGVVKFLQ	0.586 ± 0.021
VLMSCLFFGIRY	0.54 ± 0.044
VLPAWSGTHFVG	0.714 ± 0.017
VLPKQVSEALTL	0.612 ± 0.024
VLPPLSALAPFD	0.764 ± 0.029
VLQSTTNPPTSW	0.631 ± 0.05
VLRFHIRRTQQQ	0.707 ± 0.012
VLRSPHYRPRRE	0.673 ± 0.055
VLSDFSFPFFVL	0.669 ± 0.017
VLSVLGLGFWGG	0.8042 ± 0.0076
VLTGQQSVFGAK	0.752 ± 0.096
VLVSGRCCRCGF	0.701 ± 0.048
VMLGGWRVPGER	0.7754 ± 0.0033
VMNGGCFGWAVG	0.628 ± 0.058
VMPSICTKYGVN	0.717 ± 0.13
VMVNTAWERRKR	0.673 ± 0.065
VMYLSGCFHSQI	0.659 ± 0.059
VNILKRQKRARG	0.72 ± 0.052
VNQSCPRPTPFV	0.67 ± 0.051

Sequence	protein stability index
VNTPGVDSDPVA	0.661 ± 0.11
VPACFSYFLASC	0.68 ± 0.04
VPCILLFSHFKH	0.619 ± 0.042
VPCPPRRLAPRG	0.582 ± 0.015
VPDGPAHIPLPL	0.683 ± 0.065
VPDGVAGRRPDR	0.679 ± 0.056
VPLIFSTFVSIS	0.54 ± 0.009
VPLSPPRTPTLY	0.648 ± 0.12
VPPALPRSPGPP	0.72 ± 0.069
VPPGVVSSPCPN	0.661 ± 0.056
VPPHPFFPLPPP	0.788 ± 0.099
VPPKHLYPLPPP	0.612 ± 0.007
VPPPALPPCPAF	0.723 ± 0.037
VPPPRLCPERPH	0.719 ± 0.063
VPPRPAPRLRPP	0.695 ± 0.07
VPRAPSPCPVSL	0.71 ± 0.046
VPRSSGAILGFL	0.637 ± 0.015
VPSGTHHPFTLS	0.751 ± 0.02
VPSLRSTLPPPL	0.731 ± 0.051
VPTCFPLSPSPP	0.714 ± 0.016
